In US11155602B2, “Polypeptides targeting HIV fusion” (priority 2015, dated 2021):

tested on: NL-Rluc virus; test: Combinectin potency assay: antiviral EC50, NL-Rluc virus in MT-2 cells, luciferase readout; format: cell-based, HIV-1; details: Anti-CD4 Adnectin, Table 2
Description: MT-2 cells, HEK 293T cells and the proviral DNA clone of […] were obtained from the NIH AIDS Research and Reference Reagent Program. MT-2 cells were propagated in RPMI 1640 medium supplemented with 10% heat-inactivated fetal bovine serum (FBS), 10 mM HEPES buffer pH 7.55, and 2 mM L-glutamine. HEK 293T cells were propagated in DMEM media supplemented with 10% heat-inactivated FBS, 10 mM HEPES buffer pH 7.55 and 2 mM L-glutamine. Recombinant NL-Rluc virus, in which a section of the nef gene from the proviral clone of NL4-3 was replaced with the Renilla luciferase gene, was constructed at Bristol-Myers Squibb. The replication-competent virus was harvested 3 days after transfection of HEK 293T cells with the modified pNL-Rluc proviral clone. Transfections were performed using Lipofectamine Plus (Invitrogen, Carlsbad, Calif.), according to manufacturer's instruction. Virus was titered in MT-2 cells using luciferase enzyme activity as a biomarker. The NL-Rluc virus used to infect MT-2 cells a multiplicity of 0.01 for 1 hour before adding to the peptides in 96-well plates. Peptides were serially diluted three-fold and 11 concentrations were plated in triplicate. After 4-5 days of incubation, cells were processed and quantitated for virus growth by the amount of expressed luciferase. Luciferase was quantitated using the Dual Luciferase kit from Promega (Madison, Wis.), with modifications to the manufacturer's protocol. The diluted Passive Lysis solution was pre-mixed with the re-suspended Luciferase Assay Reagent and then re-suspended in STOP & GLO® Substrate (2:1:1 ratio). A total of […] of the mixture was added to each aspirated well on assay plates and luciferase activity was measured immediately on a Wallac TriLux (Perkin-Elmer, Waltham, Mass.). The 50% effective concentration (EC50) was calculated by comparing the amount of luciferase produced in the presence of inhibitory peptide compared to wells where no peptide was added.

| Molecule | EC50 [nM] |
| --- | --- |
| 107 (protein, Adnectin) MGVSDVPRDLEVVAATPTSLLISWDEHTDIYRYYRITYGETGGNSPVQEFTVPAMEHTATISGLKPGVDYTITVYAVTHVYPIMIHQYPISINYRTEIDKPSQHHHHHH | 500 |
| 100 (protein, Adnectin) MASTSGSSSYLMPSDLEVVAATPTSLYIHWYPIASTIINFRITYGETGGNSPVQEFTVPGSQVHATISGLKPGVDYTITVYAVHYEHKYSELWMGHPISINYRTEGSGSHHHHHH | 6 |
| 106 (protein, Adnectin) MASTSGQAYPEYYFVDLEVVAATPTSLLISWSKPYYNAYSYRITYGETGGNSPVQEFTVLGHDTRAVISGLKPGVDYTITVYAMFIEYIDQEIWHAHPISINYRTEGSGSHHHHHH | 2400 |
| 101 (protein, Adnectin) MASTSGSASYLIPSDLEVVAATPTSLSIYWYPVASTIINFRITYVETGGNSPVQEFTVPGSKSTATISGLKPGVDYTITVYAVHYEQKYSEYWIGHPISINYRTEGSGSHHHHHH | > 400 |
| 95 (protein, Adnectin) MASTSGVSDVPRDLEVVAATPTSLLISWDAPAVTVHSYHIQYWPLGWYQRYQVFSVPGSKSTATISGLKPEVEYQIRVYAETGGGGSQQSFGWIQIGYRTEGSGSHHHHHH | 48 |
| 96 (protein, Adnectin) MGVSDVPRDLEVVAATPTSLLISWDAPAVTVQSYHIQYWPLGSYQRYQVFSVPGSKSTATISGLKPGVEYQIRVYAETGGADSDQSMGWIQIGYRTEGDKPSQHHHHHH | 7.8 |
| 97 (protein, Adnectin) MGVSDVPRDLEVVAATPTSLLISWDAPAVTVHSYHIQYWPLGWYQRYQVFSVPGSKSTATISGLKPGVEYQIRVYAETRSGLADESFGWIQIGYRTEGDKPSQHHHHHH | 11 |
| 98 (protein, Adnectin) MGVSDVPRDLEVVAATPTSLLISWDAPAVTVHSYHIQYWPLGSYQRYQVFSVPGSKSTATISGLKPGVEYQIRVYAETGGADSDQSMGWIQIGYRTEGDKPSQHHHHHH | 4.9 |
| 102 (protein, Adnectin) MASTSGSSPYLMPYDLEVVAATPTSLFIRWYGSASSIVKFRITYGETGGNSPVQEFTVGGTQLHATISGLKPGVDYTITVYAVHFEHKYSELWIGHPISINYRTEGSGSHHHHHH | > 5500 |
| 104 (protein, Adnectin) MASTSGTHWFYSIPHDLEVVAATPTSLTIAWEPPHHTAMGYRITYGETGGNSPVQEFTVPGGYTTAYISGLKPGVDYTITVYAAYYEREYSEHWISHPISINYRTEGSGSHHHHHH | 500 |
| 109 (protein, Adnectin) MGVSDVPRDLEVVAATPTSLLISWDYPTVTPRYYRITYGETGGNSPVQEFTVPEYIGTATISGLKPGVDYTITVYAVTNDTTIYSISRPISINYRTEIDKPSQHHHHHH | 320 |
| 99 (protein, Adnectin) MGHHHHHHGGVSDVPRDLEVVAATPTSLLISWDAPAVTVHSYHIQYWPLGSYQRYQVFSVPGSKSTATISGLKPGVEYQIRVYAETGGADSDQSFGWIQIGYRTPES | 8.5 |
| 114 (protein, Adnectin) MGHHHHHHGGVSDVPRDLEVVAATPTSLLISWDAPAVTVHAYHIQYWPLGFYQGYQVFSVPGSKSTATISGLKPGVEYQIRVYAETGLGDAHQSLGWIQIGYRTPES | 12.6 |
| 111 (protein, Adnectin) MGHHHHHHGGVSDVPRDLEVVAATPTSLLISWDAPAVTVHSYHIQYWPLGSYQRYQVFSVPGSKSTATISGLKPGVEYQIRVYAETGRGESDQSFGWIQIGYRTEES | 20 |
| 113 (protein, Adnectin) MGHHHHHHGGVSDVPRDLEVVAATPTSLLISWDAPAVTVHSYHIQYWPLGSYQRYQVFSVPGSKSTATISGLKPGVEYQIRVYAETGRGESDQSFGWIQIGYRTPES | 15.4 |
| 112 (protein, Adnectin) MGHHHHHHGGVSDVPRDLEVVAATPTSLLISWDAPAVTVHSYHIQYWPLGSYQRYQVFSVPGSKSTATISGLKPGVEYQIRVYAETGRGESDQSLGWIQIGYRTPES | 18.4 |
| 110 (protein, Adnectin) MGHHHHHHGGVSDVPRDLEVVAATPTSLLISWDAPAVTVHSYHIQYWPLGSYQRYQVFSVPGSKSTATISGLKPGVEYQIRVYAETGRGESDQSLGWIQIGYRTEES | 28.6 |
| 105 (protein, Adnectin) MASTSGEFYHTKYPYDLEVVAATPTSLEISWRSPTRDWQWFRITYGETGGNSPVQEFTVAGPYRNAIISGLKPGVDYTITVYADVYMPSEGGLVVDTYHPISINYRTEGSGSHHHHHH | 300 |
| 103 (protein, Adnectin) MASTSGYTSYPIPYDLEVVAATPTSLYIHWYWIAATIISFRITYGETGGNSPVQEFTVPAGQDHATISGLKPGVDYTITVYAVHYEEEYSEFWTGHPISINYRTEGSGSHHHHHH | 255 |
| 108 (protein, Adnectin) MASTSGVSDVPRDLEVVAATPTSLLISWDAPAVTVLEYQIDYHPAAVWHALQRFTVPGSKSTATISGLKPGVHYKISVTATTHADNESIMWHPISIYYRTEGSGSHHHHHH | 170 |

same assay, conditions: Anti-N17 Adnectin, Table 3

| Molecule | EC50 [nM] |
| --- | --- |
| 140 (protein, Adnectin) MGVSDVPRDLEVVAATPTSLLISWDLLEDMSRYYRITYGETGGNSPVQEFTVPTDAYTATISGLKPGVDYTITVYAVTQDSHVIELSYPISINYRTEIDKPSQHHHHHH | 950 |
| 364 (protein, Adnectin) MGHHHHHHGGSVSDVPRDLEVVAATPTSLLISWEYKVHPYRYYRITYGETGGNSPVQEFTVPSVLSTATISGLKPGVDYTITVYAVTYGDPSAPISINYRTEID | 89 |
| 370 (protein, Adnectin) MGHHHHHHGGSVSDVPRDLEVVAATPTSLLISWEYKVHPYRYYRITYGETGGNSPVQEFTVPSVLSTATISGLKPGVDYTITVYAVTYGDDSKPISINYRTEID | 335 |
| 366 (protein, Adnectin) MGHHHHHHGGSVSDVPRDLEVVAATPTSLLISWEYKVYHNRYYRITYGETGGNSPVQEFTVPSVLSTATISGLKPGVDYTITVYAVTYGDDSAPISINYRTEID | > 1000 |
| 367 (protein, Adnectin) MGHHHHHHGGSVSDVPRDLEVVAATPTSLLISWEYKVHPYRYYRITYGETGGNSPVQEFTVPSVLSSAQLSGLKPGVDYTITVYAVTYGDDSAPISINYRTEID | 300 |
| 369 (protein, Adnectin) MGHHHHHHGGSVSDVPRDLEVVAATPTSLLISWEYKVHPYRYYRITYGETGGNSPVQEFTVPSVLSTATISGLKPGVDYTITVYAVTYGDPSAPISINYRTEID | 155 |
| 365 (protein, Adnectin) MGHHHHHHGGSVSDVPRDLEVVAATPTSLLISWEYKVSGYRYYRITYGETGGNSPVQEFTVPSVLSTATISGLKPGVDYTITVYAVTYGDDSAPISINYRTEID | > 1000 |
| 368 (protein, Adnectin) MGHHHHHHGGSVSDVPRDLEVVAATPTSLLISWEYKVHPYRYYRITYGETGGNSPVQEFTVPSVLSTATISGLKPGVDYTITVYAVTYGTDSAPISINYRTEID | 62 |
| 371 (protein, Adnectin) MGHHHHHHGGSVSDVPRDLEVVAATPTSLLISWEYKVHPYRYYRITYGETGGNSPVQEFTVPSVLSTATISGLKPGVDYTITVYAVTYGIDSTPISINYRTEID | 114 |
| 139 (protein, Adnectin) MGVSDVPRDLEVVAATPTSLLISWEDPEAAVRYYRITYGETGGNSPVQEFTVPINDLHSYLSGLKPGVDYTITVYAVTEATVMYVLDEPISINYRTEIDKPSQHHHHHH | 130 |
